15 sequences from the DeepSol protein solubility set can be followed below.

This data set in a line: soluble on expression in E. coli; label from the status in PepcDB or PDB records.
For “SSPFLYLVLLVLGLHATIHCASPEGKVTACHSSQPNATLYKMSSINADFAFNLYRRFTVETPDKNIFFSPVSISAALVMLSFGACCSTQTEIVETLGFNLTDTPMVEIQHGFQHLICSLNFPKKELELQIGNALFIGKHLKPLAKFLNDVKTLYETEVFSTDFSNISAAKQEINSHVEMQTKGKVVGLIQDLKPNTIMVLVNYIHFKAQWANPFDPSKTEDSSSFLIDKTTTVQVPMMHQMEQYYHLVDMELNCTVLQMDYSKNALALFVLPKEGQMESVEAAMSSKTLKKWNRLLQKGWVDLFVPKFSISATYDLGATLLKMGIQHAYSENADFSGLTEDNGLKLSNAAHKAVLHIGEKGTEAAAVPEVELSDQPENTFLHPIIQIDRSFMLLILERSTRSILFLGKVVNPTEA”, the “soluble on expression in E. coli” value is “not soluble”.

As to “MGSDKIHHHHHHMEEQREILEQLKKTLQMLTVEPSKNNQIANEEKEKKENENSWCILEHNYEDIAQEFIDFIYKNPTTYHVVSFFAELLDKHNFKYLSEKSNWQDSIGEDGGKFYTIRNGTNLSAFILGKNWRAEKGVGVIGSHVDALTVKLKPVSFKDTAEGYGRIAVAPYGGTLNELWLDRDLGIGGRLLYKKKGTNEIKSALVDSTPLPVCRIPSLAPHFGKPAEGPFDKEDQTIPVIGFPTPDEEGNEPPTDDEKKSPLFGKHCIHLLRYVAKLAGVEVSELIQMDLDLFDVQKGTIGGIGKHFLFAPRLDDRLCSFAAMIALICYAKDVNTEESDLFSTVTLYDNEEIGSLTRQGAKGGLLESVVERSSSAFTKKPVDLHTVWANSIILSADVNHLYNPNFPEVYLKNHFPVPNVGITLSLDPNGHMATDVVGTALVEELARRNGDKVQYFQIKNNSRSGGTIGPSLASQTGARTIDLGIAQLSMHSIRAATGSKDVGLGVKFFNGFFKHWRSVYDEFGEL”, the “soluble on expression in E. coli” value is listed as “not soluble”.

On to “MSLGLIRAQPKSGYYVSNHAIKQLASKTTPVPEQASTVVSISDMVFSILSSIKDPETVPLGSAFPWPDLFPLARLSRSLAHATRDMGPAAIVESLPPGNHDLRRQIARRYLMQGVEADVDNILITNGAFEALNLCLEAVTQPGDLVAIESPTFHGCLQALERLQLKAVEIPVDPVLGMDLDYLESVLEKCPVRACWSMTSFQNPMGVSMPAERKQVLVELLTRYRIPLIEDDVYGELYFGMQEHRPAKAYDSEGYVMHCSSFSKTLAPGYRIGWALLPKRFERKVERLKVITSLSTSTIAQAAIADFLQHGGYDRHLRRLRTKFELQQHQYLHLIARYFPAETQVTRPHGGYFLWVDLPERVDALVLFQRALEQGVSVAPGPIFSARHQCCNCIRINYSKPVDAEVEQAFKTLGRLMSSIEAEGHHHHHH”, for which the “soluble on expression in E. coli” value is recorded as “soluble”.

As for “MNTDKQVYPLYYEAKNDKVRKRLGIKGGFYWAEAKKLSIAISRGAVAIDDAGYDEDDFKKPVRVNLPVVDDLPPEGVFDTEFCNRYEKGGEDGITMVFIASSPSVQDKPASTDNTNVNGEDMTEIEENMLLPVSGQELPIRWLAQHGSEKPVTHVSRDELQALHIARDEELPAVTALAVSHKTSLLDPLEIRDLHKLVRDTDRVFPNPGNSSLGLMTAFFEAYMDADYTDRGLLTKEWMKGNRVSRITRTASGANAGGGNLTDRGEGFVHDLTSLARDVATGVLARSMDVDIYNLHPAHAKRVEEIIAENKPPFSVFRDKFITMPGGMDYSRAIVVASVKEAPIGIEVIPAHVTEYLNKVLTETDHANPDPEIVDIACGRSSAPMPQRVTEEGKQDDEEKTQPSGAMADEQATAETMEPDATEHHQNTQPLDAQSQVNSVDEKYQELRAELHEARKNIPPKNPVDADKLLAALR”, the “soluble on expression in E. coli” value is given as “not soluble”.

Take “MDKSTPRRTYNLRSADRTTQNSPVSRQSLENHRNASVSLRKRSSTSSLQRIQSEFTFTDSATEERCSRKRRRTQQTHGLPFSSPDAINHQRAFHLDEHKVCSKLTTRLSIEVETSYGSFGKLPYDAVIHILTRTPYNLLSRMVMTSSCWNQTIGAYMRSGAFRRRWLLDIDIAPSSKPLDPFFDMGKLVRCLTINYEWKARLDCLKSFMTLAYESGALIAGLGKMIHAFTNRPDEDIVLEQIDDIVAMLLALVSGLKDDLSAVLFTPETDRELEELDNMPILREEMKLRKKTLNLFLNNGSSDPAHGVNKYFLSSLMKVFKTAHNALPTALFYLLFSPTTIQDDEEVIHWHRLSLLSVVTSEEAEELKPLSRAMCALIQCRNLKHVLPWSKNTIFNLMEEITTYPNPWSMSTFVALNVLEPELVPIGVVARMNRNHEDEAGDIICTMKMLLHRWDMDVYGVMESIIDTIKAVLKPYQRRILFDRCWDWHQRNIDEHRNQMGHFSDIRAEIESQIEVMPVLMKLL”: the “soluble on expression in E. coli” value was “not soluble”.

As to “MPILIRNIVLAPGEGDDVLGTRVAERFGVPERDIQSLHLVRKSIDARRKPRVIIVCTVQCRLLDEAGFLVRHGHDPDVKAVKEEPQPVFPRLAGGGRIVIVGMGPAGLFAALRLAEYGLAPTILERGRPVEERTRDVQAFWSLGQLDTESNVQFGEGGAGTFSDGKLTTRVNDSRIGYVLQKFVDFGASPEILHLAKPHVGTDQLRRVVAGIRQGLLAAGCDIRFRSRVTDIVSREGRVGTVIVNGTDEIAADALVLAPGHSARDTYEMLARRGVHLQAKPFAMGVRVEHPQELINGIQYGKGHHPALPPADYALAHNDRRTGRSAYSFCMCPGGVVVAGSSEEGGVVTNGMSAHLRNTPFANSALVVTVGPDDFGSSSPLAGVEFQRHWERRAFEAGGGGYRAPAQNLLSFLGMKGGKGVSSSYRPRVTETDLSRVLPAAVTGTLREALPTFDRRMRGFVTAEATLTGVETRTSAPVRIVRGEDCQSVSLQGLYPTGEGAGYAGGIMSAALDGIRVADIIAGKMTAETRSAILEHHHHHH”, the “soluble on expression in E. coli” value is recorded as “not soluble”.

For the sequence “MSLYYVTEDDVDKNFDMKAAINAVREAFEEYGKGRAYSSTRVRTFSQDGVLNTMPAAMEKYHISGLKSYYATRNGAKFVVVLFDTAADELLAIIEANRLGQIRTGAVTAYATSILHKNVEIFAIIGSGFQAETQLEGMLKVANPTEIRVYSRNQEHARNFSERSSKKFGVSIRAVESAEAALIGADTITTITNSNVPIVYRKYLGDEYHINLAGSNYINRREAESAVLSDANIVVTEHLEQSLIESVEISEYVKLGGKPIELKDVAVDPTRYSKFHRTVFKSMGIGLEDIISGYAVLKNMGIIEGHHHHHH”, the “soluble on expression in E. coli” value was “soluble”.

As for “TPQSITRKVARYIPGTVEHLQEQQQYARKIRDVTAQKVDQFSNVFHALSESFATFYQASDEQTDDSEVDLFLSKITEHSCQTCYKKNRCWVQNFDKTYDLMKQVMLETEEKEYASNRRLKKEFQQYCSKSKQVEELIEDELAHHHAHLTLKKKVQDSRRLVAEQLLGVSEVMADFSREIKREREQHFLQEEQIIEALQHFGIEIQHVEIYSLEQGNIDIEMTIPFSGHGESEKIIAPMLSDILEEQILVKAEQHSPHPNGYSHVAFGSTKSYRVSTGAAHAAKGGGLVSGDSYSMMELGARKYAAAISDGMGNGARAHFESNETIKLLEKILESGIDEKIAIKTINSILSLRTTDEIYSTLDLSIIDLQDASCKFLKVGSTPSFIKRGDQVMKVQASNLPIGIINEFDVEVVSEQLKAGDLLIMMSDGIFEGPKHVENHDLWMKRKMKGLKTNDPQEIADLLMEEVIRTRSGQIEDDMTVVVVRIDHNTPKWASIPVPAIFQNKQEI”, the “soluble on expression in E. coli” value is “not soluble”.

For “MAHHHHHHMMRIKQKAFVGKKICIAWEVLHDGKGWKAQGKALQILRFYAFSSEVYLMCRIRDADDKKQICNLVKAVDGIERHRVLFCTTEKGYEAFTRQIDPSLLITNNAAQVAFLKRVIQTLVLVGGDGVVASNVACVPSVEAIAVDLE”, the “soluble on expression in E. coli” value was “not soluble”.

Regarding “MGSDKIHHHHHHMHVSLDTMVDTLKAAAESSRLRILALLSRGDLTVSDLTEILGQSQPRVSRHLKLLLEAGLIDRYQEGSWAFFRLSDADSARDFVMGLVSSIRGADPQVERDLERLASVKRKRQDRAAEYFSVNAASWDHIRSLHVPDRAVEAAMLKLVGKRPFQSMLDLGTGTGRLLEIFSPLYRRGVGIDMSREMLTVARANLDKAGVSNAQVRQGDIFSPPVERDAFDLVTIHQVLHYLDDPARAIHEAARLLRPSGRLVIVDFAPHTLEFLREEHAHMRLGFSDRQIGEWFAEAGLDLEDAQEFEPRGGSEPRLTVKLWLGRDRRLLIADPANDSQQTKVNSIGEIA”, the “soluble on expression in E. coli” value was “not soluble”.

Take “MSLITVNTLQKMKAAGEKIAMLTAYESSFAALMDDAGVEMLLVGDSLGMAVQGRKSTLPVSLRDMCYHTECVARGAKNAMIVSDLPFGAYQQSKEQAFAAAAELMAAGAHMVKLEGGVWMAETTEFLQMRGIPVCAHIGLTPQSVFAFGGYKVQGRGGKAQALLNDAKAHDDAGAAVVLMECVLAELAKKVTETVSCPTIGIGAGADCDGQVLVMHDMLGIFPGKTAKFVKNFMQGHDSVQAAVRAYVAEVKAKTFPAAEHIFADEGGSHHHHHH”: the “soluble on expression in E. coli” value is listed as “soluble”.

In the case of “MQLQPFSQACENNKVPILAVLKSAFANTTRVLEIGSGTGQHAVYFATNLPQLFWQTSDQAEYLEGIKARCLLQGHQLGINNLGFPITLDVTAPWPVNGTHIDAVFSANTLHIMSKSMVEAFFNGLGEYLPQLNTLCIYGPFNYQGHYTSDSNRQFDHFLKQRDSESGIRDIEWIIALAQAQGLTLVEDIAMPTNNRLLHFKHLLALEHHHHHH”, the “soluble on expression in E. coli” value is recorded as “not soluble”.

Take “MSLSMSTIAKVAARAGVSPTTVSHVINHSDRVSKPLRERVEAAIKDLGYKPNPQAQSLRTGRTNIVAMLIPDIRNPFYPELVKAAQSELEVAGLDMLIFNTDVPGGQSQDHGREYLRQIGNKRVDGLIVGDFALHGMHDALMRVETPTVFIGNLPNHAVDCVRIDDFGGGYQMGAYLAGKGHRRIAHVTGPSFFAEAMSRADGFEQGLADHGATPDPGLRFEGSYLAPSGKAAAEWLLAGHGGDLPSAVFFGNYLMAAGALAEFYDRGIRIPDDFKVAVFGDQPQLEYVRPRLTRVGNAPAELARRATRMLLERINGTYEGEPRSEVVSCVLREFETEGHHHHHH”: the “soluble on expression in E. coli” value is “soluble”.

In the case of “MRAELQAETEAERLERQAKLHELLHRLRGEPNVLLPFHQALALRPRGERHLGLRTIEVDKVVGSVDRYEDFDHRFLPKTPHTLERWKRLRALQLAGAEFPPIEVYQVGEAYFVKDGNHRVALAKATGQKFIDAHVIALDVPVPIEPGDTPKDLLLKAEYAHFLEKTRLKDLVPGAEEIRFTALGRYDRLLDHIATRRYFKGLEEGREISWEEAVVDWYENLYKPTVEAIRRLGLLRDFPGRTEADLYLWVMDHRYFLARELGVDPGPEGAAKSYEAHFGGVWKRLGGGLKRLLTGR”, the “soluble on expression in E. coli” value is given as “soluble”.

Regarding “MKSAEIREAFLRFFEEKGHTRVASSSLIPANDPTLLFTNAGMNQFKDCFLGLEKRAYTRATTSQKCVRAGGKHNDLENVGYTARHHTFFEMLGNFSFGDYFKRDAIHYAWEFLTGEKWLNLPKEKLWVTVYATDDEAYDIWTKEVGVPAERMVRIGDNKGAPYASDNFWAMGDTGPCGPCTEIFFDHGPEIWGGPPGSPEEDGDRYIEIWNNVFMQFNRTADGVMHPLPAPSVDTGMGLERVSAVLQHVHSNYEIDLFQNLLKASAEAIGCANDDAPSLKVVADHIRSCSFLIADGVLPSNEGRGYVLRRIIRRACRHGNKLGARGTFFHKIVAALVAEMGDAFPELKQQQAHIERVLKTEEEQFAKTLEQGLKILEQDLAELQGSVIPGNVVFKLYDTYGFPVDLTNDIARERELTIDEDGFEREMEAQRERARASSAFGMDYNSLVKVDGETRFLGYQGVSGAGQIVALFRDGQAVERLEEGEEGVVVLDQTPFYAESGGQVGDSGYLEAAGVRFDVRDTTKAGGAHLHHGVVARGNLSVGGAVKAEVDASVRQATALNHSATHLLHAALRQVLGDHVQQKGSLVDSQRLRFDFSHFEAIKAEQLKALEDIVNAEIRRNTEVETEETDIDTAKAKGAMALFGEKYGDQVRVLSMGGDFSVELCGGTHVSRTGDIGLFKITSEGGVAAGVRRIEAVTGAAALAYLNGAEEQLKEAASLVKGSRDNLLDKLGALLERNRSLEKELEQLKAKAASAAGDDLSAAAVEIKGAKVLAARLDGLDGKALLALVDQLKNKLGRAVILLGGELDGKVVLVAGVTQDLTGQLKAGELMKQAAAAVGGKGGGRPDMAQGGGTDAAKLDEALALAQRF”, the “soluble on expression in E. coli” value was “not soluble”.
